Test results published in patent publication US12296018B2, “Albumin binding peptide-drug (AlBiPeD) conjugates and methods of making and using same” (priority 2018, dated 2025).
Several values for one entry are separate records, joined by “and”; a condition that tells them apart may be missing. Identical values can stand only once.

Legend:
[1] = Tissue biodistribution in C26 tumor-bearing BALB/c mice; assay type: in vivo
Source text: The tissue concentration of Dox.

[2] = system: AsPC-1 pancreatic cancer cells; test: In vitro cytotoxicity (MTS, 72 h) AsPC-1; assay type: cell-based, human; settings: 72 h incubation, Dox Equiv. concentration
Experimental: (§1) In vitro cytotoxicity C26 murine colon carcinoma cells and three different pancreatic cancer cell lines, BxPC-3, AsPC-1, and MIA PaCa-2, were used to study the in vitro cytotoxicity of ABD-DOX and Dox. Cells were cultured and grown as monolayers at 37° C. with C02 in a humidified incubator and were passaged at ˜80% confluency using 0.05% trypsin-EDTA (Invitrogen, Carlsbad, CA). C26, BxPC-3, AsPC-1, and MIA PaCa-2 cells were seeded in 96-well plates (5,000 cells/well) and incubated overnight. Three-fold serial dilutions of drug were then added to the wells in triplicate and also to control wells (media with no cells) to correct for the background Dox absorbance. After 72 h treatment, 20 μL MTS reagent was added to each well and was incubated for 3 h at 37° C., and the absorbance at 490 nm was measured using a Victor3 plate reader (Perkin Elmer, Boston, MA). Cell viability (%) was defined as the percentage of the absorbance of the drug-treated cells relative to buffer-treated cells and IC50 values were determined using logistic non-linear regression analysis with GraphPad Prism software. The IC50 was defined as the Dox Equiv. concentration of formulations resulting in 50% growth inhibition compared with a negative control, buffer-treated cells.

[3] = system: C26 murine colon carcinoma cells; test: In vitro cytotoxicity (MTS, 72 h) C26; assay type: cell-based
Experimental: as §1

[4] = Dose-escalation study, maximum tolerated dose; assay type: in vivo, BALB/c mice
Experimental: With these encouraging biodistribution results in hand, tumor regression in vivo by ABD-Dox was investigated. The maximum tolerated dose (MTD) of ABD-Dox was established in healthy mice. A range of doses of ABD-Dox were injected into healthy BALB/c mice, and body weight loss and mortality of the mice were monitored over a two-week period to assess systemic toxicity. […] Using these criteria, the MTD was determined to be 20 mg Dox Equiv.kg^−1 for ABD-Dox (FIG. 7) and 10 mgkg^−1 BW MTD of free Dox (FIG. 8).

[5] = system: BxPC-3 pancreatic cancer cells; test: In vitro cytotoxicity (MTS, 72 h) BxPC-3; assay type: cell-based, human; settings: 72 h incubation, Dox Equiv. concentration
Experimental: as §1

Substance: ABD-Dox (GLAEAKVLANRELDKYGVSDYYKNLINNAKTVEGVKALIDEILAALPCGGCGGCGGCGG)
- AUC in other tissues compared to free Dox ([1]; 2 to 72 h): No significant difference
- AUC in the spleen, lower than free Dox ([1]; 2 to 72 h): ~50%
- AUC in the tumor, fold greater than free Dox ([1]; 2 to 72 h): 16 fold
- concentration in kidneys compared to free Dox ([1]; 2 h): lower concentration
- concentration in liver compared to free Dox ([1]; 2 h): lower concentration
- concentration in muscle compared to free Dox ([1]; 2 h): lower concentration
- concentration in spleen compared to free Dox ([1]; 2 h): lower concentration
- concentration in heart compared to free Dox ([1]; 24 h): higher concentration
- concentration in liver compared to free Dox ([1]; 24 h): higher concentration
- concentration in lungs compared to free Dox ([1]; 24 h): higher concentration
- concentration in muscle compared to free Dox ([1]; 24 h): higher concentration
- concentration in spleen compared to free Dox ([1]; 24 h): lower concentration
- accumulation in kidneys compared to free Dox ([1]; 72 h): higher
- accumulation in liver compared to free Dox ([1]; 72 h): higher
- accumulation in lungs compared to free Dox ([1]; 72 h): higher
- accumulation in muscle compared to free Dox ([1]; 72 h): higher
- tumor accumulation, fold greater than free Dox ([1]; 72 h): ~120 fold
- IC50 [2]: 15.2 µM
- IC50 ([3]; 72 h incubation, Dox Equiv. concentration): 6.4 µM and 6.43 µM
- in vitro cytotoxicity, fold lower than free Dox ([3]; C26 and MIA PaCa-2 cells): 10-30 fold
- maximum tolerated dose (MTD) ([4]; i.v., healthy BALB/c mice, two weeks, no mortality or body weight loss greater than 15%): 20 mg Dox Equiv.kg^−1
- maximum tolerated dose, fold higher than free drug ([4]; mouse, in vivo): 2 fold
- IC50 [5]: 8.9 µM
